Laboratory results taken from US20170081406A1.

Target: Human FcRn with human β2M on MDCK II clone 15 cells (human) (UniProt P55899)
Test: cell-based or functional assay

Human FcRn with human β2M on MDCK II clone 15 cells (human), sequence (P55899 24-365, chain 1 of 2): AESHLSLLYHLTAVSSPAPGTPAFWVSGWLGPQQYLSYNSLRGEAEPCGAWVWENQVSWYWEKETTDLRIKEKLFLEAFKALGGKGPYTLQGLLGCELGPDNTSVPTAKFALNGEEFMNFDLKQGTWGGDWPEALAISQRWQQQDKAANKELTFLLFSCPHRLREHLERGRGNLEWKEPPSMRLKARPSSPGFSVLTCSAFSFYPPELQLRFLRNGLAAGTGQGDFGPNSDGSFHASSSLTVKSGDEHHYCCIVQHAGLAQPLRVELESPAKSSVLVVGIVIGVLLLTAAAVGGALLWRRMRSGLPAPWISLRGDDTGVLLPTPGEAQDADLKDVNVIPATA
Human FcRn with human β2M on MDCK II clone 15 cells (human), sequence (P61769 21-119, chain 2 of 2, further chain): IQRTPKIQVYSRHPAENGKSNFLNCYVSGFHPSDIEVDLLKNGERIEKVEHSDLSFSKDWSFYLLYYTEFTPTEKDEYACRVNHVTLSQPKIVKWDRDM

Substance | Blockade of IgG intracellular uptake EC50 | Blockade of IgG recycling (% inhibition at 100 µg/ml) | Blockade of IgG recycling EC50
IgG4 IgM tail-piece, T307A (Fc-multimer) (Fc fusion) | 0.5 µg/mL |  | 
IgG1 IgM tail-piece, H310L (Fc-multimer) (Fc fusion) |  | 45 | 
IgG1 IgM tail-piece, V308F (Fc-multimer) (Fc fusion) | 0.12 µg/mL |  | 0.073 µg/mL
IgG4 IgM tail-piece, Wild-type (Fc-multimer) (Fc fusion) | 5.9 µg/mL |  | 1 µg/mL
IgG4 IgM tail-piece, V308F (Fc-multimer) (Fc fusion) | 0.42 µg/mL |  | 0.56 µg/mL
IgG1 IgM tail-piece, Wild-type (Fc-multimer) (Fc fusion) | 4.4 µg/mL |  | 0.33 µg/mL
IgG4 IgM tail-piece, V308P (Fc-multimer) (Fc fusion) | 0.51 µg/mL |  | 0.42 µg/mL
IgG1 IgM tail-piece, V308P (Fc-multimer) (Fc fusion) | 0.34 µg/mL |  | 0.55 µg/mL
IgG1 IgM tail-piece, T307A (Fc-multimer) (Fc fusion) | 0.54 µg/mL |  | 0.35 µg/mL

Target: Human FcRn with human β2M on MDCK II clone 15 cells (human) (UniProt P55899)
Test: not given

Substance | EC50, inhibition of FcRn mediated IgG recycling (cell lysates), MDCK II clone 15 cells, biotinylated human IgG, MSD detection | EC50, inhibition of FcRn mediated IgG recycling (culture media), MDCK II clone 15 cells, biotinylated human IgG, MSD detection
human IgG1 Fc-multimer IgM tp L309C (from UniProt P0DOX5 228-449) (Fc fusion) | 7.28 µg/mL | 
IgG1 Fc IgM tp L309 (wild type IgG1 Fc-multimer) (from UniProt P0DOX5 228-449) (Fc fusion) | 0.37 µg/mL | 0.33 µg/mL
